{"source": "paper PMC10360031", "about": "(ACS Applied Materials & Interfaces, 2023)", "binders": {"B1": {"name": "cell-surface vimentin (CSV) on mouse embryonic fibroblasts mEF +/+ (natural protein)", "chain": "not shown", "notes": "also called extracellular Vim; native extracellular Vim; source: endogenous, on live mEF +/+ cells"}}, "target": "T1, wild-strain SARS-CoV-2 spike protein RBD (SARS-CoV-2, UniProt P0DTC2)", "T1 construct": "also called S1 RBD; wild-type strain S1 RBD", "experiment": "AFM single-molecule force spectroscopy", "conditions": "one partner purified"}
{"binder": "B1", "values": [{"measurement": "koff", "result": "0.19 ± 0.07", "unit": "s⁻¹"}]}
